Measured values from article doi:10.1101/2021.02.08.430375v1.

Substrate: NC(=O)CCCC[C@@H](S)CCS
Test: purified protein
Details: 100 mM Na phosphate, 100 mM KCl, 8 mM TCEP pH 7.6, room temperature

B1: Lpd (dihydrolipoamide dehydrogenase; lipoamide dehydrogenase) (Escherichia coli K-12) (protein)
chain: MSTEIKTQVVVLGAGPAGYSAAFRCADLGLETVIVERYNTLGGVCLNVGCIPSKALLHVAKVIEEAKALAEHGIVFGEPKTDIDKIRTWKEKVINQLTGGLAGMAKGRKVKVVNGLGKFTGANTLEVEGENGKTVINFDNAIIAAGSRPIQLPFIPHEDPRIWDSTDALELKEVPERLLVMGGGIIGLEMGTVYHALGSQIDVVEMFDQVIPAADKDIVKVFTKRISKKFNLMLETKVTAVEAKEDGIYVTMEGKKAPAEPQRYDAVLVAIGRVPNGKNLDAGKAGVEVDDRGFIRVDKQLRTNVPHIFAIGDIVGQPMLAHKGVHEGHVAAEVIAGKKHYFDPKVIPSIAYTEPEVAWVGLTEKEAKEKGISYETATFPWAASGRAIASDCADGMTKLIFDKESHRVIGGAIVGTNGGELLGEIGLAIEMGCDAEDIALTIHAHPTLHESVGLAAEVFEGSITDLPNPKAKKK
B1 gave a Km of 180 ± 20 µM.
